Values quoted from earlier work, collected in US20230313258A1, “CROSS-LINIKING METHODS” (The University of Bath, priority 2020, published 2023).

Target: dimeric AP-1 transcription factor (Homo sapiens, UniProt P05412)
Conditions: previously identified (Mason et al. 2006)

Chain of dimeric AP-1 transcription factor (P05412 whole entry): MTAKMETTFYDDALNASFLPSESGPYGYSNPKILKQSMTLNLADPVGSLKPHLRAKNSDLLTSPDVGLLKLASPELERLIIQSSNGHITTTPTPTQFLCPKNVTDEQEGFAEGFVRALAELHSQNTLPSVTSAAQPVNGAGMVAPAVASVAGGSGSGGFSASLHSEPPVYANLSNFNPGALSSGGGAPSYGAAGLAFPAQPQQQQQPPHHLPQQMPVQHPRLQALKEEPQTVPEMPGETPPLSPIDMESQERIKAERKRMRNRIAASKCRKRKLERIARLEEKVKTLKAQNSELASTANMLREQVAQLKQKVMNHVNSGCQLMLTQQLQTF

FosW: parent peptide, SEQ ID NO: 1, ASLDELQAEIEQLEERNYALRKEIEDLQKQLEKLGAP; previously identified inhibitor of AP-1
ability to dissociate AP-1 from its DNA binding site: able to dissociate the dimeric AP-1 transcription factor from its DNA binding site
